Experimental data reported in the domain aggregation screens of Martell et al. (2025).

Assay: soluble fraction after stress (log2 fold change); higher = more stays soluble; pooled small domains, quantitative proteomics
Settings: stress: pH 4
Summary of the method: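 Pooled custom libraries of small protein domains were stressed at pH 4 and then measured by high-throughput quantitative proteomics. The fold change in the amount of each domain that stays soluble after the acid stress serves as a measure of aggregation propensity. Fold changes are given on a log2 scale, and higher values mean more of the domain stayed soluble.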

Row | Sequence | soluble fraction (log2)
1 | HMKGSIFLDEATKMVDNSALKSLNTFLEEYARETNNQIFLISHQETPAEVTQIKLKKVGGETSYE | -0.0644
2 | HMKGSPFSQLPKEKKKRILQAAIEVFAQNDYKHASTDEIASRAGISKGLLFYYFHDKKTLYFYLGEYLKR | 0.173
3 | HMKGTLPEMITSREEVVLKFMVNGWDAKRIASELDISVLTVRKHIANIYEKLHVQSKAEIISMAHQQKWFN | -0.731
4 | HMKGTSIELIVPQDIAGLRLDQVLAKLLPQWSRSRLQSWINEKHITVNGQTTTAKQKLWGNETIQIIPPI | -0.0718
5 | HMKHEFSEEWLDWIKSNIADGQNKNGLFKVLLNHGYAYDAVREVMQYEPTVPLDELVDPLRA | -0.953
6 | HMKHFNDEELDGFAGLKSDDYNEEQVELFRNIFEELHPDEIIEWTESLRRRGIEIPSSLKDEVVMMIN | -1.69
7 | HMKHFTYEEMELMSIYDPGTREGLIANLEEMRGYLEPDETELRELTDSALEKLRELSDADYEQLELI | -1.48
8 | HMKHMTMYEAAKIAKEVGAPKLWLTHYSPSMTRPEEFMDDVRKIFPAAYAAKDGWTMELNFDEG | -0.385
9 | HMKHRTQMDIQQLPAIEGKGGFEYKISIIHLSTRIKYSEIHDNYNTTTIAKVYENAIERLPPF | -1.13
10 | HMKHSLNHLGLWLLPELSRRDIQLREFAHLLGTTSQGLSDLLRGQRFSSHTLAQWQLRFQEKLDEIDQAS | -0.236
11 | HMKHTVSVDRLQPGVFVSLGGLSWLDHPFLLNRFRLTDHDQIKVLRSLGVKEIEWDPTRSTAQPLPE | -0.724
12 | HMKIAPRTAENQQLRKMILEIYTTSKKRVGPAKVRRMLLRDYGISISIGRVYRLMSTMNLPKMS | 0.22
13 | HMKIDLPIWLNKKAWEAWVEYKKERKQKLTPSIIKFQLRILEKNKEDHPEIIRNSITNGWTGLFPLK | -0.347
14 | HMKIEDSNTIKLKANQAYKTHYYSEAIKLYDELLTKYEPNSEAIKLNLAHAHFKAKGFAAASKLYT | 0.22
15 | HMKIELTDQQKSLVVDEWNKGEANPPSLLQLIRLAYPDQPHLDGRSKEGKAVKAFLATRDINPLA | -0.0382
16 | HMKIETVENPLLERTEISALFDSKSGSLTRKEAIDLISKKARIDSSTVYAIKLSNSSGSTRIIGLFY | 0.00271
17 | HMKIIDDIQEFAGVTKTQNTFFHIFNHLHQNGKQLILTSDRAPVMLQGMEERLLTRFKWGLVAELE | 0.158
18 | HMKIKKIWFDGDYIYGMDERNNTYRQSLLWYSKLRNASAEERERYTFSTIGIHWRELDEDVSFESF | -1.78
19 | HMKIKLQATEQQRKTLDELYVQLKKLEPTSKEDLSLLYRLENPHLVSKQEAQGLISIAIGRVGSLAIEQQ | 0.258
20 | HMKINKQHLAFQIFGIRAKLGLSMEQFGELLGANKSSVSGWERGTVVPSSQRLKKIAELGKISLAELLTP | 0.276
21 | HMKINVQETEVYRYLLERADRLYSMILGEERENLMERTRFFEKEVAKASLPHLPKLYDEFSIYLDRLERG | -0.555
22 | HMKIPYGELIKLLNAAAPKLQDAQGWMDMEAAGQFIGSRWSYLDYGFKDWPDSFKTVHGLEIQGQRMRLA | -0.306
23 | HMKIQISGSQRIDENVVVKVAGLSFPQSLLSLEPGQIESKLMQELPVQEVSVQRRLLPPGLDIQLVE | -0.246
24 | HMKIQTYEDFRNAYPDIQGSLFGSAERYKTDLDWGDVAAKYDADEELKNVRNIFQLVRRYEQKYS | -0.643
25 | HMKISIPQEYFEIYNVLKQRPMHINEISKILKKPVSEISGTISLMEIEGYITKLTTDQYVLKKI | -0.644
26 | HMKITADQEIETAINYFKKSIAEKGWKGVNPDEFKQMNDYLSETFGYSATIKFQKALDEQGLMVDE | -0.429
27 | HMKITININIETLSHHIKQSGVPLGRLQESVPDYNEIVTGNKSPTYQQLEKISKLIRVPLGLLVIESPL | -0.451
28 | HMKITLAESVYERIRRDIITNQLKPGEKINIRELSTRYEASETPIRLALNRLASENIIEHFPRQGMRVK | -0.0624

Row | Sequence | soluble fraction (log2)
29 | HMKIVPEPGTVLIREYQEERHEVTVTLDGAFDYKGTLYSSLSEIARLITGTRWSGPVFFGLRS | -0.353
30 | HMKIYDQVVDRIKDRISKGDMPQGSALPPERQLIDELNVSRSSLREGFRILEMMGLIESIPGKGRFVRTSR | -0.619
31 | HMKKAIYPGSFDPLTLGHIDIIKRASGIVDELVVGVLNNSAKNSLFSLDERVSMIEEMTKDLPNVSVTSFD | -0.0125
32 | HMKKEDFLEILRDYLKKGFSEDEVMDILRDYEEYFVDGIIEGKSEIEIIQSLGSPKEIANELLAES | -0.754
33 | HMKKEQVIVPNVVGDTYDVALRKLTDAKLKVGETFPADREGHQGVIEKQSPAAGETVDEDTPVALFFKV | -0.384
34 | HMKKERITWDERLERFAKYITENESLPYPSSKEHAWFEENKALYDAGELESVRAQSFSFLLKILRRMNLI | -0.449
35 | HMKKGATVSGVIVEKTKKSLIIDLGAKTEGVVADKEFEFAIDFVKELKKGDEVKAIVISTDNDKGQVVLSL | ≥ 0.43
36 | HMKKHALFTLFKHHNANGTTVWYARFWDDATQRYAIARSTGVLAQGKRERHDEAITVAREMASSIQFS | 0.264
37 | HMKKHAPSLMRQIRRELKEGKSPESLLSKAKLISDSYYRSLSFYLLIPYLSPNSKQFQEAISLAGKDID | -0.216
38 | HMKKKSYIVSFATDEDAQRFAREGFEVISLSGRQITVSLKGEMMPLVKALGSYQVVGLETVA | -0.72
39 | HMKKLPDDANDIIERVSSRLAQKFRFGYHTIDDMKQQAALFAWEGIYDSWDDSRPLENFLWIHVRNRLYN | 0.18
40 | HMKKLTGVQKAAILMIALGPDISSSIIKRLPENMVERITYEIANMTKITAQQRNDILKEFMDMTVAQ | -0.479
41 | HMKKNTEALDYYKKAGANFPEDEVISSEYLFRAAQLQEVLGKTDEAVAIYKDIKAKYPTTEIGLNVDKFIL | -0.181
42 | HMKKQLKSEAVADELRRKILSGGFPDKRLPRKDELTEYFQVSQKTVEAALKMLTAEGLIRGVKGTGIFVNG | 0.156
43 | HMKKQLTISDGDWAGKVSSMLEDMGVINSASEFDKYLSDNGYSNVIKSGTYDVSPEDTFQELAEKIT | -1.05
44 | HMKKRDAEIMLQREFKLTEAIAMVRDRDIQELLPIALYFKVNINQPTAEIRYNLLNIAKSKTQEFIEAFD | -1.03
45 | HMKKRDANSQGTRLILFYMLQRLHTEYKLQGFVTYNQRRSFREIYDAYHALGGNGFGTAMWEEVKELDLK | -0.0682
46 | HMKKTAAKVLGESEGKPVTVQSGRYGPYVQLGSIRATLPKDLEQDDVTLDRALELISAKAERAGK | 0.0406
47 | HMKKTDFNVENYDIEELAAILNFKYVPLNQGLIRDRIKDMKQRFKNKPEYIKFFTDVEIKLVNNLNLFN | -1.01
48 | HMKKTFSKSSVMEAIFRDIPNITIPNAHEVYTLIKNISVMNKRKSITSEDIEKAYDALGLTP | 0.145
49 | HMKKTPLSELTNRAVELFIETVFMERNYSVSSQRQFISALKIFTVFYPQTKIHNLSLERLQSSFDKLLN | -0.564
50 | HMKKTTEFAVTPEFQQRLEASPELKAAFQALTPGRQRAHLLFFAAPKQAQTRQARIEKSLPQIMAGKGLN | -0.0768
51 | HMKKTVTDSVELLTFLKDIFTNTSTNKLRKMLTTGRVTVNNIVIHKAKHILVQNDVVEIGDK | -0.0253
52 | HMKKVIEFKDVSFAFEKKPILQDFNLLVQNKDRIGIVGDNGVGKSTLLNLIAERLQPQSGQVII | 0.0777
53 | HMKKVSVKPILELRAAGISMRKIETLMHVSRHTISAIYKAADAYSISWDNVKDFDEDKIYEMLFPPTP | ≥ 0.43
54 | HMKKYEIIFNDLKQSIVNGKYSNEERLPPEETLAKKYQTSRVPVQQALNALVGIGMVKRIAGSGTYVTY | -0.212
55 | HMKKYFPPKSRFNPNKYLLKDWMALGLSEKQSQSILNFIQRGIYSNSALEKIYVMPEEVFTLIKDSTYYEE | -1.26
